Laboratory results taken from US20080318834A1, “Antimicrobial Lactoferrin Compositions for Surfaces, Cavities, and Foodstuff” (priority 2004, published 2008).

Columns and labels:
[1] = tested on: E. coli ATCC 43895 (E. coli O157:H7); assay: in vitro Tryptic Soy Broth (TSB) growth inhibition assay (Bioscreen C, OD 420-580 nm); assay type: cell-based, Escherichia coli
[2] = tested on: Ps. aeruginosa (Pak strain); assay: in vitro growth inhibition assay in Luria Broth Base (LB) (Bioscreen C, OD 420-580 nm); assay type: cell-based, Pseudomonas aeruginosa; conditions: 2% (w/v) LF in PBS, sample pH of 1.7 or lower; 200 CFU's/well (200 CFU's:1 mg LF); FIG. 1B

B1: lactoferrin (protein, UniProt P02788 20-710, looked up)
Lactotransferrin: GRRRSVQWCAVSQPEATKCFQWQRNMRKVRGPPVSCIKRDSPIQCIQAIAENRADAVTLDGGFIYEAGLAPYKLRPVAAEVYGTERQPRTHYYAVAVVKKGGSFQLNELQGLKSCHTGLRRTAGWNVPIGTLRPFLNWTGPPEPIEAAVARFFSASCVPGADKGQFPNLCRLCAGTGENKCAFSSQEPYFSYSGAFKCLRDGAGDVAFIRESTVFEDLSDEAERDEYELLCPDNTRKPVDKFKDCHLARVPSHAVVARSVNGKEDAIWNLLRQAQEKFGKDKSPKFQLFGSPSGQKDLLFKDSAIGFSRVPPRIDSGLYLGSGYFTAIQNLRKSEEEVAARRARVVWCAVGEQELRKCNQWSGLSEGSVTCSSASTTEDCIALVLKGEADAMSLDGGYVYTAGKCGLVPVLAENYKSQQSSDPDPNCVDRPVEGYLAVAVVRRSDTSLTWNSVKGKKSCHTAVDRTAGWNIPMGLLFNQTGSCKFDEYFSQSCAPGSDPRSNLCALCIGDEQGENKCVPNSNERYYGYTGAFRCLAENAGDVAFVKDVTVLQNTDGNNNEAWAKDLKLADFALLCLDGKRKPVTEARSCHLAMAPNHAVVSRMDKVERLKQVLLHQQAKFGRNGSDCPDKFCLFQSETKNLLFNDNTECLARLHGKTTYEKYLGPQYVAGITNLKKCSTSPLLEACEFLRK
- time for which E. coli growth was inhibited ([1]; 2% (w/v) LF in PBS, test sample pH below 2.5, 530 CFU's:1 mg LF, 37° C., FIG. 1A): at least 60 hours
- antimicrobial activity on E. coli O157:H7 as function of EDTA concentration ([1]; 2% (w/v) LF in demi water, 0-1 mM EDTA, pH about 5 not adjusted, 270 CFU's:1 mg LF, FIG. 2): increases with increasing EDTA concentration
- time for which growth of Pseudomonas aeruginosa is inhibited [2]: at least 45 hours
